Measurements from US20110212084A1 (AstraZeneca / MedImmune, published 2011).

What was measured:
[1] = biological target: T1, human IgEλ (U266 derived) (human, UniProt P01854 1-546); experiment: cell-based or functional assay
[2] = biological target: T2, cynomolgus IgE (recombinant chimaeric D12 variable region / cynomolgus IgE constant region) (cynomolgus monkey (constant region)); experiment: cell-based or functional assay
[3] = biological target: T3, human IgEλ (U266 derived) (human, UniProt P01854 1-546); experiment: HTRF receptor-ligand competition, scFv titrated; Eu-cryptate human IgE (U266) binding to human FcεRI-Fc; geomean
T3 construct: mature; full-length IgE purified from U266 cells (Ikeyama et al. 1986); labelled with europium cryptate in the HTRF assays; also called human IgE (U266-derived)
Description: (§1) Purified scFv were tested in a receptor-ligand binding HTRF® (Homogeneous Time-Resolved Fluorescence) assay format for inhibition of either human IgE (U266-derived [Ikeyama et. al. 1986. Molecular Immunology 23 (2); p159-167]) or cyno IgE (recombinant, see materials and methods) labelled with europium cryptate (CIS bio International 62EUSPEA), binding to human FcεR1-Fc (in house NS0 cell produced). Example scFv potency data is included in Table 5a
as §1, with “produced).” for “produced). Example scFv potency data is included in Table 5a”

[4] = biological target: T4, human IgE (source not stated for the assay) (human, UniProt P01854-1 1-428); experiment: SPR, BIAcore 2000; IgE amine-coupled to CM5 chip, IgG as analyte, bivalent analyte model; geomean
T4 construct: also called purified human IgE; IgE (Calbiochem or U266-derived)
T4 sequence (P01854 other isoform, or with tags, fused parts or gaps): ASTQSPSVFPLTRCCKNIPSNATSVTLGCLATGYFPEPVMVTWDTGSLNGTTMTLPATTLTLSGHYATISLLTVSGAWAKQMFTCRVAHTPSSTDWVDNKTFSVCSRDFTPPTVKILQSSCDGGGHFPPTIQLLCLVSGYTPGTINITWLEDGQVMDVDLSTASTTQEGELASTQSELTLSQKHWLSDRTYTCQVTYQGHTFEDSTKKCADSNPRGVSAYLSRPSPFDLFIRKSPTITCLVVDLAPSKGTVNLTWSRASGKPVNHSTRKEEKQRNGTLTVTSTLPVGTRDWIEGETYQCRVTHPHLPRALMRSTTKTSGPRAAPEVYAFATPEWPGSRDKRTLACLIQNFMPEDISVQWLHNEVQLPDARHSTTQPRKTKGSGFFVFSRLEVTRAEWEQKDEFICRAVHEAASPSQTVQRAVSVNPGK
Description: The binding affinity of purified IgG samples of a representative number of clones to human and cynomolgus IgE was determined by surface plasmon resonance using BIAcore 2000 biosensor (BIAcore AB) essentially as described by Karlsson et al 1991; Journal of Immunological Methods 145 (1-2) 229-240. In brief, purified human or cynomolgus IgE was covalently coupled to the surface of a CM5 sensor chip (BIAcore) using standard amine coupling reagents according to the manufacturer's instructions to provide a surface density of 100 RU. IgG samples prepared in HBS-EP buffer (BIAcore (AB), at a range of concentrations, between 250 nM and 15.6 nM were passed over the sensor chip surface. The surface was regenerated using 10 mM Glycine, pH 1.75 between each injection of antibody. The resulting sensorgrams were evaluated using BIA evaluation 3.1 software and fitted to a bivalent analyte model, to provide relative binding data.

[5] = biological target: T2, cynomolgus IgE (recombinant chimaeric …); experiment: HTRF receptor-ligand competition, scFv titrated; Eu-cryptate cynomolgus IgE binding to human FcεRI-Fc; geomean
Description: as §1
as §1, with “produced).” for “produced). Example scFv potency data is included in Table 5a”

[6] = biological target: T1, human IgEλ (U266 derived); experiment: HTRF receptor-ligand competition, scFv titrated; Eu-cryptate human IgE (U266) binding to human FcεRI-Fc; geomean
Description: as §1
as §1, with “produced).” for “produced). Example scFv potency data is included in Table 5a”

T2 sequence (heavy, as listed by the source limits assumed, chain 1 of 2): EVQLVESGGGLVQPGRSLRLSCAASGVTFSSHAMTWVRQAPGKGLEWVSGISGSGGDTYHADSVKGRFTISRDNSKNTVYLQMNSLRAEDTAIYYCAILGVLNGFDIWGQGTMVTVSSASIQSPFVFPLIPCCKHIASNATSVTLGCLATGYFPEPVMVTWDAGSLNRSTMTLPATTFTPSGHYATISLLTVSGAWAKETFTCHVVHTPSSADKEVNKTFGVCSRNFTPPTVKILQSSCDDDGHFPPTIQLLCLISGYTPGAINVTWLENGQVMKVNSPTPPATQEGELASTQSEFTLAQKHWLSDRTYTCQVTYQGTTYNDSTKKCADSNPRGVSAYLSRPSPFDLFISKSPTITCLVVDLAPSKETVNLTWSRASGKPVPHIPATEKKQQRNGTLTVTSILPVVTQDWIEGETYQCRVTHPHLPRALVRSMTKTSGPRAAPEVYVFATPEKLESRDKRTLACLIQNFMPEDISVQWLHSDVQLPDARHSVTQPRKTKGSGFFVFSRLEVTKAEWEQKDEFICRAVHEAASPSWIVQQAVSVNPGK
T2 sequence (light, as listed by the source limits assumed, chain 2 of 2): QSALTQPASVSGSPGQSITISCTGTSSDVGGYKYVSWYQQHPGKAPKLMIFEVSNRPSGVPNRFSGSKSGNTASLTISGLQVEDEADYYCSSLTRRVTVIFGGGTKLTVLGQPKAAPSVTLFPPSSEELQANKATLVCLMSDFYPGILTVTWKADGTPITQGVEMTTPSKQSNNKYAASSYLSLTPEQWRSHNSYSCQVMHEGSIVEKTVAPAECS

Row | Binder | IC50 [3] [nM] | IC50 [5] [nM] | IC50 [6] [nM] | further results
1 | Antibody 26 (IgG) (antibody, V domains shown) VH: EVQLLESGGGLVQPGGSLRLSCAASGLTFSGYAMSWVRQAPGKGLEWVSAISGSGGRTYYADSVKGRFTISRDNSKNMLYLQMNSLRAEDTAVYYCARHIAVAGTRGFDYWGRGTLVTVSS VL: SFVLTQPPSVSVSPGQTASITCSGDKLGDTYASWYRQRSGQSPVLVIYQDDKRPSGIPERFSGSNSGNTATLTIGGTHTMDEADYYCLAWDTRTSGAVFGGGTKLTVL | – | – | – | RBL-ER51 calcium signalling IC50 (nM) Geomean, human IgE 25 ng/ml [1]: 1.2 nM; RBL-ER51 calcium signalling IC50 (nM) Geomean, cynomolgus IgE 100 ng/ml [2]: 17 nM
2 | Antibody 10 (scFv) (scFv, V domains shown, purified scFv) VH: not shown VL: SYVLTQPPSVSVSPGQTASITCSGDKLGDKYASWYRQRSGQSPVLVIYQDDKRPSGIPERFSGSNSGNTATLTISGTHTMDEADYYCLAWDTRTSGAVFGGGTKLTVL | 10 | – | – | –
3 | Antibody 10 (IgG) (antibody, V domains shown) VH: not shown VL: SYVLTQPPSVSVSPGQTASITCSGDKLGDKYASWYRQRSGQSPVLVIYQDDKRPSGIPERFSGSNSGNTATLTISGTHTMDEADYYCLAWDTRTSGAVFGGGTKLTVL | – | – | – | RBL-ER51 calcium signalling IC50 (nM) Geomean, human IgE 25 ng/ml [1]: 1.5 nM; Kd [4]: 1.3 nM
4 | Antibody 34 (IgG) (antibody, V domains shown) VH: EVQLLESGGGLVQPGGSLRLSCAAPGFTLSSYAMSWVRQAPGKGLEWVSAISGGSGGRTYYADSVKGRFTISRDNSKNTLYLQMNSLRAEDTAVYYCARHIAVAGTRGFDYWGRGTLVTVSS VL: SYVLTQPPSVSASPGQTASITCSGDKLGDTYASWYRQRSGQSPVLVIYQDDKRPPGIPERFSGSNSGNTATLTIRGTHTMDEADYYCLAWDTRTSGAVFGGGTKLSVL | – | – | – | RBL-ER51 calcium signalling IC50 (nM) Geomean, human IgE 25 ng/ml [1]: 0.223 nM; RBL-ER51 calcium signalling IC50 (nM) Geomean, cynomolgus IgE 100 ng/ml [2]: 22 nM; Kd [4]: 26 nM
5 | Antibody 26 (scFv) (scFv, V domains shown, purified scFv) VH: EVQLLESGGGLVQPGGSLRLSCAASGLTFSGYAMSWVRQAPGKGLEWVSAISGSGGRTYYADSVKGRFTISRDNSKNMLYLQMNSLRAEDTAVYYCARHIAVAGTRGFDYWGRGTLVTVSS VL: SFVLTQPPSVSVSPGQTASITCSGDKLGDTYASWYRQRSGQSPVLVIYQDDKRPSGIPERFSGSNSGNTATLTIGGTHTMDEADYYCLAWDTRTSGAVFGGGTKLTVL | – | 359 | 8 | –
6 | Antibody 36 (scFv) (scFv, V domains shown, purified scFv) VH: EVQLLESGGGLVQPGGSLRLSCAASGFTFSSYAMSWVRQAPGKGLEWVSAISGSGGRTYYADSVKGRFTISRDNSKNTLYLQMNSLRAEDTAVYYCARHIAVAGTRGFDYWGRGTLVTVSS VL: SFMLSQPPSVSVSPGQTASITCSGDKLGDTYASWYRQRSGQSPVLVIYQDDKRPSGIPERFSGSNSGNTATLTISGTHTMDEADYYCLAWDTRTSGAVFGGGTKLTVL | 8 | 407 | – | –
7 | Antibody 2 (scFv) (scFv, V domains shown, purified scFv) VH: EVQLLESGGGLVQPGGSLRLSCAASGFTFSSYAMSWVRQAPGKGLEWVSAISGSGGRTYYADSVKGRFTISRDNSKNTLYLQMNSLRAEDTAVYYCARHIAVAGTRGFDYWGRGTLVTVSS VL: SYVLTQPPSVSVSPGQTASITCSGDKLGDTYASWYRQRSGQSPVLVIYQDDRRPSGIPERFSGSNSGNTATLTISGTHTMDEADYYCLAWDTRTSGAVFGGGTKLTVL | – | 398 | 7 | –
8 | Antibody 33 (scFv) (scFv, V domains shown, purified scFv) VH: EVQLLESGGGLVQPGGSLSLSCAAPGFTFSSYAMSWVRQAPGKGLEWVSAISGGSGGRTYYADSVKGRFTISKDNSKNTLYLQMNSLRAEDTAVYYCARHIAVAGTRGFDYWGRGTLVTVSS VL: SYVLTQPPSVSVSPGQTASITCSGDKLGDTYASWYRQRSGLSPALVIYQDDKRPSGIPERFSGSNSGNTATLTISGTHTMDEADYYCLAWDTRTSGAVFGGGTKLTVL | 14 | 533 | – | –
9 | Antibody 4 (scFv) (scFv, V domains shown, purified scFv) VH: EVQLLESGGGLVQPGGSLRLSCAASGFTFSSYAMSWVRQAPGKGLEWVSAISGSGGRTYYADSVKGRFTISRDNSKNTLYLQMNSLRAEDTAVYYCARHIAVAGTRGFDYWGRGTPVTVSS VL: SFVLTQPPSVSVSPGQTASITCSGDKLGDTYASWYRQRSGQSPVLVIYQDDKRPSGIPERFSGSNSGNTATLTISGTHTMDEADYYCLAWDTRTSGAVFGGGTKLTVL | – | 600 | 5.4 | –
10 | Antibody 12 (scFv) (scFv, V domains shown, purified scFv) VH: EVQLLESGGGLVQPGGSLRLSCAASGFTFSSYAMSWVRQAPGKGLEWVSAISGSGGRTYYADSVKGRFTISRDNSKNTLYLQMNSLRAEDTAVYYCARHIAVAGTRGFDYWGRGTLVTVSS VL: SFMLSQPPSVSVSPGQTASITCSGDKLGDTYASWYRQRSGQSPVLVIYQDDKRPSGIPERFSGSNSGNTATLTISGTHTMDEADYYCLAWDTRTSGAVFGGGTKLTVL | 8 | 473 | – | –
11 | Antibody 5 (scFv) (scFv, V domains shown, purified scFv) VH: EVQLLESGGGLVQPGGSLRLSCAASGFTFSSYAMSWVRQAPGKGLEWVSAISGSGGRTYYADSVKGRFTISRDNSKNTLYLQMNSLRAEDTAVYYCARHIAVAGTRGFDYWGRGTLVTVSS VL: SYVLTQPPSVSVSPGQTASITCSGDKLGDTYASWYRQRSGQSPVLVIYQDDRRPSGIPERFSGSNSGNTATLTISGTHTMDEADYYCLAWDTRTSGAVFGGGTKLTAL | – | 356 | 6 | –
12 | Antibody 34 (scFv) (scFv, V domains shown, purified scFv) VH: EVQLLESGGGLVQPGGSLRLSCAAPGFTLSSYAMSWVRQAPGKGLEWVSAISGGSGGRTYYADSVKGRFTISRDNSKNTLYLQMNSLRAEDTAVYYCARHIAVAGTRGFDYWGRGTLVTVSS VL: SYVLTQPPSVSASPGQTASITCSGDKLGDTYASWYRQRSGQSPVLVIYQDDKRPPGIPERFSGSNSGNTATLTIRGTHTMDEADYYCLAWDTRTSGAVFGGGTKLSVL | 3 | 500 | – | –
13 | Antibody 9 (scFv) (scFv, V domains shown, purified scFv) VH: EVQLLESGGGLVQPGGSLRLSCAASGFTFSSYAMSWVRQAPGKGLEWVSAISGGSGGRTYYADSVKGRFTISRDNSKNTLYLQMNSLRAEDTAVYYCARHIAVAGTRGFDYWGRGTLVTVSS VL: SFVLSQPPSVSVSPGQTASITCSGDKLGDTYASWYRQRSGQSPVLVIYQDDKRPSGIPERFSGSNSGNTATLTISGTHTMDEADYYCLAWDTRTSGAVFGGGTKLTVL | 6 | 138 | – | –
14 | Antibody 27 (scFv) (scFv, V domains shown, purified scFv) VH: EVQLLESGGGLVQPGGSLRLSCAASGFTFSSYAMSWVRQAPGKGLEWVSAISGSGGRTYYADSVKGRFTISRDNSKNTLYLQMNSLRAEDTAVYYCARSTYFASTRGFDYWGRGTLVTVSS VL: SYVLTQPPSVSVSPGQTASITCSGDKLGDTYASWYRQRSGQSPVLVIYQDDKRPSGIPERFSGSNSGNTATLTISGTHTMDEADYYCLAWDTRTSGAVFGGGTKLTVL | – | 379 | 2 | –
15 | Antibody 15 (scFv) (scFv, V domains shown, purified scFv) VH: EVQLLESGGGLVQPGGSLRLSCAAPGFTFSSYAMSWVRQAPGKGLEWVSAISGGSGGRTYYADSVKGRFTISRDNSKNTLYLQMNSLRAEDTAVYYCARHIAVAGTRGFDYWGRGTLVTVSS VL: SYVLTQPPSVSVSPGQTASITCSGDKLGDTYASWYRQRSGQSPVLVIYQDDRRPSGIPERFSGSNSGNTATLTISGTHTMDEADYYCLAWDTRTSGAVFGGGTKLTVL | 4 | 135 | – | –
16 | Antibody 3 (scFv) (scFv, V domains shown, purified scFv) VH: EVQLLESGGGLVQPGGSLRLSCAASGFTFSSYAMSWVRQAPGKGLEWVSAISGSGGRTYYADSVKGRFTISRDNSKNTLYLQMNSLRAEDTAVYYCARHIAVAGTRGFDYWGRGTLVTVSS VL: SYVLTQPPSVSVSPGQTASITCSGDKLGDTYASWYRQRSGQSPVLVIYQDDKRPSGIPERFSGSNSGDTATLTISGTHTMDEADYYCLAWDTRTSGAVFGGGTKLTVL | – | 237 | 5 | –
17 | Antibody 7 (scFv) (scFv, V domains shown, purified scFv) VH: EVQLLESGGGLVQPGGSLRLSCAASGFTFSSYAMSWVRQAPGKGLEWVSAISGGGGRTYYADSVKGRFTISRDNSKNTLYLQMNSLRAEDTAVYYCARHIAVAGTRGFDYWGRGTLVTVSS VL: SYVLTQPPSVSASPGQTASITCSGDKLGDTYASWYRQRSGQSPVLVIYQDDKRPSGIPERFSGSNSGNTATLTISGTHTMDEADYYCLAWDTRTSGAVFGGGTKLTVL | – | 569 | 8 | –
